Residue numbers refer to the chain shown, from its start. Names and notes keep the numbering of the source.
B1: NaA527C, single-site cysteine variant of NaAtm1 (natural protein, Novosphingobium aromaticivorans)
chain: MPPETATNPKDARHDGWQTLKRFLPYLWPADNAVLRRRVVGAILMVLLGKATTLALPFAYKKAVDAMTLGGGAQPALTVALAFVLAYALGRFSGVLFDNLRNIVFERVGQDATRHLAENVFARLHKLSLRFHLARRTGEVTKVIERGTKSIDTMLYFLLFNIAPTVIELTAVIVIFWLNFGLGLVTATILAVIAYVWTTRTITEWRTHLREKMNRLDGQALARAVDSLLNYETVKYFGAESREEARYASAARAYADAAVKSENSLGLLNIAQALIVNLLMAGAMAWTVYGWSQGKLTVGDLVFVNTYLTQLFRPLDMLGMVYRTIRQGLIDMAEMFRLIDTHIEVADVPNAPALVVNRPSVTFDNVVFGYDRDREILHGLSFEVAAGSRVAIVGPSGAGKSTIARLLFRFYDPWEGRILIDGQDIAHVTQTSLRAALGIVPQDSVLFNDTIGYNIAYGRDGASRAEVDAAAKGAAIADFIARLPQGYDTEVGERGLKLSGGEKQRVAIARTLVKNPPILLFDEATSCLDTRTEQDILSTMRAVASHRTTISIAHRLSTIADSDTILVLDQGRLAEQGSHLDLLRRDGLYAEMWARQAAESAEVSEAAE
modifications: C527 in a disulfide with C527 of the second chain after oxidation
notes: NaAtm1 of Novosphingobium aromaticivorans, GenBank ABD27067, with A527C; Made by site-directed mutagenesis of the C-terminally His6-tagged NaAtm1 construct; also called crosslinked NaA527C; source: Escherichia coli BL21-gold (DE3), purified (NiNTA, oxidation with Cu(II)-(1,10-phenanthroline)3, SEC)
B2: NaT525C, single-site cysteine variant of NaAtm1 (natural protein, Novosphingobium aromaticivorans)
chain: B1 chain with T525C, C527A
notes: NaAtm1 of Novosphingobium aromaticivorans, GenBank ABD27067, with T525C; In the cross-linking test C525 forms a disulfide with C525 of the second chain; source: Escherichia coli BL21-gold (DE3), purified (NiNTA, oxidation with Cu(II)-(1,10-phenanthroline)3, SEC)
B3: wildtype NaAtm1, bacterial Atm1 homolog from Novosphingobium aromaticivorans (natural protein)
chain: B1 chain with C527A
notes: NaAtm1, ABC exporter (Atm1 homolog) of Novosphingobium aromaticivorans, GenBank ABD27067; natively cysteine-less; homodimer of 133 kDa; Selenomethionine protein (E. coli B834 (DE3)) was used for phasing; also called native transporter; source: Escherichia coli BL21-gold (DE3), purified (NiNTA, SEC) in DDM
B4: NaE523Q, ATP-hydrolysis deficient variant of NaAtm1 with the E to Q mutation in the Walker B-motif (natural protein, Novosphingobium aromaticivorans)
chain: B1 chain with E523Q, C527A
notes: NaAtm1 of Novosphingobium aromaticivorans, GenBank ABD27067, with E523Q; Made by site-directed mutagenesis of the C-terminally His6-tagged NaAtm1 construct; source: Escherichia coli BL21-gold (DE3), purified (NiNTA, SEC)
B5: NaS526C, single-site cysteine variant of NaAtm1 (natural protein, Novosphingobium aromaticivorans)
chain: B1 chain with S526C, C527A
modifications: C526 in a disulfide with C526 of the second chain after oxidation
notes: NaAtm1 of Novosphingobium aromaticivorans, GenBank ABD27067, with S526C; Made by site-directed mutagenesis of the C-terminally His6-tagged NaAtm1 construct; source: Escherichia coli BL21-gold (DE3), purified (NiNTA, oxidation with Cu(II)-(1,10-phenanthroline)3, SEC)

How the values were obtained:
[1] = target: the molecule itself; experiment: cross-linking; disulfide cross-linking of purified cysteine variants in detergent: 1 mM Cu(II)-(1,10-phenanthroline)3, 1 hour, 4 °C, 100 mM NaCl, 20 mM Tris pH 7.5, 0.05% DDM, 0.05% C12E8
[2] = target: the molecule itself; experiment: crystal structure; wildtype NaAtm1 purified in DDM with MgAMPPNP; 50 mM ADA pH 7.1, 8-10% PEG 1000, 8-10% PEG 1500, 20 °C
[3] = target: the molecule itself; experiment: crystal structure; NaS526C, NaT525C and NaE523Q with bound ATP; condition of NaA527C without MgCl2; samples with 1 mM ATP and 5 mM EDTA

Protein	binding result [1]	other results
B1	binds	–
B2	binds	–
B3	–	binding result [2]: binds
B4	–	binding result [3]: binds
B5	binds	–

Reference: article doi:10.1101/836676, “Crosslinking of nucleotide binding domains improves the coupling efficiency of an ABC transporter” (bioRxiv, 2019)
